Experimental data taken from patent US20250289869.

Columns and labels:
[1] = tested on: FVIII169/VWF057 heterodimer
[2] = tested on: FVIII169/VWF059 heterodimer
Chain of FVIII169/VWF059 heterodimer (chain, as listed by the source, chain 1 of 2): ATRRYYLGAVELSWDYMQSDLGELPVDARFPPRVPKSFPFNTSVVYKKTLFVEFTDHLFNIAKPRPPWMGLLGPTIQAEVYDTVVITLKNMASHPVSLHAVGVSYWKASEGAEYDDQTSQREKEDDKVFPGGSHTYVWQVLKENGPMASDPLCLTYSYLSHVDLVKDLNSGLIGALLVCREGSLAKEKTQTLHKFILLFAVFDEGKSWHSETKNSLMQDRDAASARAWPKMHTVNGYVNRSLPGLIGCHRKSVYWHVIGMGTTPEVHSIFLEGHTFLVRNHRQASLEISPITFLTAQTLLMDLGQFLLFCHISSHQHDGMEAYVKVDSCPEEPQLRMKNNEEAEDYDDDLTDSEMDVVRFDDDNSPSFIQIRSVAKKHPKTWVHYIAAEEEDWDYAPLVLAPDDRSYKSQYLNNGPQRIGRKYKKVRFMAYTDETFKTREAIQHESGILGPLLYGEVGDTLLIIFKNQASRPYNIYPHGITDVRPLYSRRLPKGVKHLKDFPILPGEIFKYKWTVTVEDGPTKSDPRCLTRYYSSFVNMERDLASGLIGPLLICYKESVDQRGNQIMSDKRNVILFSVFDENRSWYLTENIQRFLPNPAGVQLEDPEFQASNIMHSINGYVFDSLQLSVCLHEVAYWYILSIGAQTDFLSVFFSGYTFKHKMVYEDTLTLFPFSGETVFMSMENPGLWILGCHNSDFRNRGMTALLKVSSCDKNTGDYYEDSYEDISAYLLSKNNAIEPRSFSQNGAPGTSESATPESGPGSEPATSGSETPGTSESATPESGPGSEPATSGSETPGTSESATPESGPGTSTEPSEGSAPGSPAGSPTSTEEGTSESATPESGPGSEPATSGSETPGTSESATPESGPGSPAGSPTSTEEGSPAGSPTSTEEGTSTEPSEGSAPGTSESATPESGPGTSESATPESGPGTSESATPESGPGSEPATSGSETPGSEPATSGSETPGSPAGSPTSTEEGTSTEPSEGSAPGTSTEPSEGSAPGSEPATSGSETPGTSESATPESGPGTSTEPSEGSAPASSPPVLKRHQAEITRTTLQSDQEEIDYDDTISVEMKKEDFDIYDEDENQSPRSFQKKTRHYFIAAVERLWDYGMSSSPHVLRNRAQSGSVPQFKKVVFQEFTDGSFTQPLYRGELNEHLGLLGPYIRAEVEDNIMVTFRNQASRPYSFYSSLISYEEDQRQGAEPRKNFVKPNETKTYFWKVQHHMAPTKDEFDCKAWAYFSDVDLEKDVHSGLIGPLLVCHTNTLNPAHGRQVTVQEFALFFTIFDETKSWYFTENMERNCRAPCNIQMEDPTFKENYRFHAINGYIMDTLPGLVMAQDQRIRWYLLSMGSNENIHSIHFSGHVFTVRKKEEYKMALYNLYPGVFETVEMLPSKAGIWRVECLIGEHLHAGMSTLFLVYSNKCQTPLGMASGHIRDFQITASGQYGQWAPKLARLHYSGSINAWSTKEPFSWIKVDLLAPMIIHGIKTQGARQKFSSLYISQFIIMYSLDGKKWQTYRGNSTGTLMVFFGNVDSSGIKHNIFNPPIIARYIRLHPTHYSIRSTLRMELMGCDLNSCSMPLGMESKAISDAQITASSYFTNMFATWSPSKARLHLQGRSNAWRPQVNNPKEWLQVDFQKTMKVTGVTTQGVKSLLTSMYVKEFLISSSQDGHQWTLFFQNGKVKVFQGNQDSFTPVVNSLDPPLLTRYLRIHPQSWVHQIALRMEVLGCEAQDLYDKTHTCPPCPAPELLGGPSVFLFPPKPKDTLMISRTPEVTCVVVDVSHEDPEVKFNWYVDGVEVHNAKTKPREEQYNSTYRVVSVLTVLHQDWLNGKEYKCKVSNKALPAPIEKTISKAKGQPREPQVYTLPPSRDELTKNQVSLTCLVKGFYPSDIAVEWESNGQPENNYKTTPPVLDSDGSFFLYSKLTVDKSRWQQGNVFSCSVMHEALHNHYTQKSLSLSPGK
Chain of FVIII169/VWF059 heterodimer (chain, as listed by the source, chain 2 of 2): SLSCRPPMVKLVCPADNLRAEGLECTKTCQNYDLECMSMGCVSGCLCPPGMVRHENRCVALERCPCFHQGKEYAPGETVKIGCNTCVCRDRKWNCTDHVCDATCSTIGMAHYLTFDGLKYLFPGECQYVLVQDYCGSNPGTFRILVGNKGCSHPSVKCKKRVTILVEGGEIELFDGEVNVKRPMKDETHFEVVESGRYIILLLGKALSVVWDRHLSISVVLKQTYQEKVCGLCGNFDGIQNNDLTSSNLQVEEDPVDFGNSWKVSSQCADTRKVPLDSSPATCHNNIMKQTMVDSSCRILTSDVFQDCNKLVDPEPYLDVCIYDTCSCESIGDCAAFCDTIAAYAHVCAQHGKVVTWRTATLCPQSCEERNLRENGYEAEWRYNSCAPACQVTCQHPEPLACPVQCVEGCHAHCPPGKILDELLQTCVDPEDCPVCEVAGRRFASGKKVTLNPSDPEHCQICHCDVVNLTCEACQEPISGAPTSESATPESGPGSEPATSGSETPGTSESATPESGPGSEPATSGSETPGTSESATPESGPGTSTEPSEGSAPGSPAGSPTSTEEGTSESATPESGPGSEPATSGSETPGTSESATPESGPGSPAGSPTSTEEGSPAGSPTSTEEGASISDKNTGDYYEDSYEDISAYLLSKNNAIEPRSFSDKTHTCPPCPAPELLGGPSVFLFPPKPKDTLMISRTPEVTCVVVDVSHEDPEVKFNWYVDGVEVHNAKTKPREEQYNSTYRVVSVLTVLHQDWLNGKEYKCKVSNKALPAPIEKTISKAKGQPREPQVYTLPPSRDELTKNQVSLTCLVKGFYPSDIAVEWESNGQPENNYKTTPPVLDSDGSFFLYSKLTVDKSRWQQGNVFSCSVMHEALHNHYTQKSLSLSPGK

Chain of FVIII169/VWF057 heterodimer (chain, as listed by the source, chain 1 of 2): as the sequence (chain, as listed by the source, chain 1 of 2) above
Chain of FVIII169/VWF057 heterodimer (chain, as listed by the source, chain 2 of 2): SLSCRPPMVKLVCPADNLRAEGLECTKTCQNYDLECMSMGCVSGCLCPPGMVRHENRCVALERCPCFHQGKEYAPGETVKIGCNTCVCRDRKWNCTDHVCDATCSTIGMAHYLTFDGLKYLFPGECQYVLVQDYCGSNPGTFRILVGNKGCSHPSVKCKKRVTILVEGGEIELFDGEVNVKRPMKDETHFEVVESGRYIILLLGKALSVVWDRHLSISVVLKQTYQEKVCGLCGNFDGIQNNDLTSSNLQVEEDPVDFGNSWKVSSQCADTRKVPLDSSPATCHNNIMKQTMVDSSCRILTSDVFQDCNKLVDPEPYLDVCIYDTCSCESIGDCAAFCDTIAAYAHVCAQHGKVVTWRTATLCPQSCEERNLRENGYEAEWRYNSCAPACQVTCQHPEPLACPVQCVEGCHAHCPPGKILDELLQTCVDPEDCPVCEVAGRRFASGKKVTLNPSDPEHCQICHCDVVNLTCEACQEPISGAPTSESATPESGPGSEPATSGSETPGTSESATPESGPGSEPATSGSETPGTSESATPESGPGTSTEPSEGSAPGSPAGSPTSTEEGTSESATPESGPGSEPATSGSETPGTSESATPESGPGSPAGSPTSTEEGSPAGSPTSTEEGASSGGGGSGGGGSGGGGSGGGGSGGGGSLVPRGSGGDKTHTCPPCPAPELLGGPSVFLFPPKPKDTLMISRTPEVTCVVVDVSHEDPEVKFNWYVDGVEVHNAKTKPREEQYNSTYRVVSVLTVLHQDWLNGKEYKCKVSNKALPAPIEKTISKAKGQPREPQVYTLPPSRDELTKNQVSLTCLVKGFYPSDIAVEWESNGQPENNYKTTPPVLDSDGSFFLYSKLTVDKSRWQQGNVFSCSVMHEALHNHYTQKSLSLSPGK

human α-thrombin
thrombin digestion, release of D′D3 from Fc (SDS-PAGE / western blot time course, FVIII:thrombin about 22:1, 37° C.) [1]: Un-cleaved FVIII169/VWF057 remained after 15 minutes
thrombin cleavage by mass spectroscopy (MS) [2]: By MS, FVIII 169/VWF059 again showed better release of D′D3 from Fc as compared to VWF057
thrombin digestion, release of D′D3 from Fc (SDS-PAGE / western blot time course, FVIII:thrombin about 22:1, 37° C.) [2]: little to no detectable un-cleaved FVIII 169/VWF059 after 5 minutes
